Source: PMC4409929 (Cell, 2015)
Changes are numbered by the printed parent chain. Numbers in names are those of the source. Where two headings read alike, the source gives them in different places. Where no end group is shown, it is not given here. The star is where a group is joined. 5FAM = O=C1OC2(c3ccc(O)cc3Oc3cc(O)ccc32)c2ccc(C(=O)*)cc21

B1: TcEsxB, EsxB of Thermomonospora curvata (natural protein, UniProt D1A4H0 1-104, looked up)
chain: MAPQSAVDRAAMAQAAQDIEQSANAIRGMQNQLASAKDQLRSHWEGDASMAFEAVFNRFNEDFSRVLKALDGMHESLVQTRITYEAREEAAQQSVNRVQALLNG
B2: TcEsxAB heterodimer (complex, Thermomonospora curvata)
chain 1: MSDYTRANFGGLSEGEAQFSMTARALLDELTDLEGKLRAKLDRWDGDAQAAYWNYQKEWDAAAKDMQNVVAQLGVAIREAHDNYQAAERANTSIWAG
chain 2: B1 chain
B3: TcEccC(cyto,R543A) (domain or fragment, Thermomonospora curvata, UniProt D1A4G7 199-1315, looked up)
chain: VPDLPVAISLRSFARILPDGDPKAVYGMVRALIMQLAAFHSPDDVRITVCASRERMPQWQWMKWLPHSLHPTEYDAAGQVRLLTHSLVELESMLGPEIKDRGMFGASRAPAEPFHLVIVDGGQASYDSQIASDGIDGVCVIDLTGSVAETNEATMLRLRVTPERVYVVKRDRAGKEVLSSVGRPDQASIAEAEALARQLAPFRTSAADEPEEDVLSANMTLTSLLHIDNPYNLDPAVLWRPRPQRNRLRVPIGLDADGRPLELDIKESAQGGMGPHGLCIGATGSGKSELLRTLVLALAMTHSPEVLNFVLVDFKGGATFLGMEGLRHVSAIITNLEEELPLVDAMYDALHGEMVRRQEHLRHSGNYASLRDYEKARMEGAPLPPMPTLFIVLDEFSELLSAKPDFAELFVMIGRLGRSLGVHLLLASQRLEEGKLRGLDTHLSYRIGLRTFSAMESRVVLGVPDAYELPPSPGNGYLKFATEPLVRFKAAYVSGPVDEEPQTRSEGPQIVRQVLPYLTDYIRPQVVEQPQPEQRAEENKSSESLFDVVVRQLAGHGPEPHQIWLPPLDVPPTLDELLPPLSPSAAHGYTADGWEWRGRLHAVVGLVDRPFDQRRDPYWLDLSGGAGHVGVAGGPQTGKSTMLRTLITSLALLHTPQEVQFYCLDFGGGTLAGLAELPHVGSVATRLDADRIRRTVAEVSALLEQREQEFTERGIDSMATYRRLRATGEYAGDGFGDVFLVVDNWLTLRQDYEALEDSITQLAARGLGYGIHVVLSSNKWSEFRTSIRDLLGTKLELRLGDPYESEVDRKKAANVPENRPGRGLTRDGYHFLTALPRIDGDTSAETLTEGIATTVKTIREAWHGPTAPPVRMLPNVLPAAQLPSAAESGTRIPIGIDEDSLSPVYLDFNTDPHFLVFGDTECGKSNLLRLITAGIIERYTPQQARLIFIDYSRSLLDVATTEHQIGYAASSTAASSLVRDIKGAMEARLPPPDLTPEQLRSRSWWTGAELFLVVDDYEMVATSDNPLRPLAELLPQARDIGLHLIIARSMGGAGRALYEPIIQRIKEMASPGLVMSGNKDEGILLGNVKPHKLPQGRGYFVERRSGTRLIQTAYRES
B4: TcEsxA, EsxA of Thermomonospora curvata (natural protein, UniProt D1A4H1 1-97, looked up)
chain: B2 chain 1

Tests used:
GbEssCb = GbEssCb (Geobacillus thermodenitrificans, UniProt A4IKE7); details: ATP bound in both ATPase domains
[1] = target: T1, TcEccC(cyto), cytoplasmic portion of EccC from Thermomonospora curvata (Thermomonospora curvata, UniProt D1A4G7 199-1315)
T1 sequence (looked up): B3 chain with A345R

[2] = target: the molecule itself
TcEccC(cyto,R543A) = target: B3; assay: cell-based or functional assay
[3] = target: T1, TcEccC(cyto), cytoplasmic portion of …; assay: fluorescence polarisation
cross-linking = target: the molecule itself; assay: cross-linking
[4] = target: T1, TcEccC(cyto), cytoplasmic portion of …; assay: fluorescence polarisation; remark: listed apart in the source
[5] = target: B1

GbEssCb, sequence (A4IKE7 921-1479): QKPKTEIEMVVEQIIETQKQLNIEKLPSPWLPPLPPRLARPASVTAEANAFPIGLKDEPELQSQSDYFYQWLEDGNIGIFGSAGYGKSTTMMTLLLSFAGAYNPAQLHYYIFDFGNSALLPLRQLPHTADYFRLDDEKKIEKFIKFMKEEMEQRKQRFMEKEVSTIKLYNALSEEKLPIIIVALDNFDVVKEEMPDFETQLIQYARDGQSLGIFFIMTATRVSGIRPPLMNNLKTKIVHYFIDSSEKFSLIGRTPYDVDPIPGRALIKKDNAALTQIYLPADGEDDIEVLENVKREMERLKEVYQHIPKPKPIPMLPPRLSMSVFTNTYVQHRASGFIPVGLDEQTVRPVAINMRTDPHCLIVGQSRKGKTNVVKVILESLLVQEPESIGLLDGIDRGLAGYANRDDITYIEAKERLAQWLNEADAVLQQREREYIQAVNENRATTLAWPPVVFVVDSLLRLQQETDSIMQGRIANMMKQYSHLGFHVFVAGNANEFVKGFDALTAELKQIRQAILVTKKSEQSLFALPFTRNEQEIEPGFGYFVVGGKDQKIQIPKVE

With Nc1ncnc2c1ncn2[C@@H]1O[C@H](COP(=O)(O)OP(=O)(O)OP(=O)(O)O)[C@@H](O)[C@H]1O [ATP] the X-ray crystal structure (GbEssCb) was “has a very similar structure, with both domains bound to ATP”.

With B1 the Kd [1] was roughly 10 µM, the “stoichiometry N” value [2] was 2 and the “ATPase activity of TcEccC(cyto,R543A) with added TcEsxB (0-10 μM)” value (TcEccC(cyto,R543A)) was 5 fold.

B2: binds [3].

B3: binds (cross-linking).

5FAM-VNRVQALLNG [fluorescently labeled signal sequence peptide 5-FAM-VNRVQALLNG]: binds [4].

B4 was tested, and the “stoichiometry N” value [5] was 1.
